Measured values from patent US20240384250A1, “FIBROBLAST GROWTH FACTOR 23 MODULATING COMPOUNDS” (THE UAB RESEARCH FOUNDATION, priority 2021, published 2024).
Like-named read-outs stand apart in the source and are kept apart here.

How the values were obtained:
FGF23 and FGFR1c = assay: sKL detection assay (FGF23 coated, Fc-FGFR1c detection); assay type: binding
Description: Commercially available ELISA plates (Maxisorp) are coated with 5 μg/ml of recombinant FGF23 protein (R&D Systems) and unspecific binding sites are blocked with BSA/Tween20. Wells are incubated with sKL in solution (which can be plasma, serum or cell culture supernatants) for one hour, washed and incubated for one hour with 750 ng/ml of recombinant FGFR1α(IIIc)-Fc (R&D Systems), which is a chimeric protein consisting of the FGFR1 ectodomain and the Fc region of a human IgG. FGFR1 only binds to FGF23 in the presence of sKL, and the formation of this trimeric sandwich complex is then measured by detecting the presence of the Fc domain that is coupled to FGFR1. To do so, wells are washed and incubated with 400 ng/ml of anti-human IgG conjugated to horseradish peroxidase (HRP; Promega). Wells are washed and incubated with HRP substrate. After development for about 30 minutes, reactions are analyzed on a standard plate reader via absorptions at […]. Incubations with recombinant sKL dissolved in PBS at defined concentrations serve as standards that are used as reference values to determine sKL concentrations in the studied human samples. […]
HEK293 cells were plated in 10 cm dishes supplemented with 10% FBS (26140079, Gibco) and I× Pen/Strep (15140122, Gibco). Cells were transfected with appropriate klotho or green fluorescent protein cDNA constructs. After 2 days, clones were selected by using 1 μg/ml of puromycin (A1113803, Gibco). Cells were then split and plated in 10 cm dishes in DMEM supplemented with FBS and puromycin. After 48 hours, cells were lysed in 1 ml of RIPA buffer with the addition of a protease inhibitor (11873580001, Roche) for 30 minutes. The mixture was then centrifuged at 20,000 g for 1 hour to remove all cell debris. Activity assay was run as above in the sKL halflife study. Instead of serum, 20 μl of the indicated cell lysate was used and combined with 80 μl of activity assay buffer.

mouse model of CKD = details: administration of sKL; cited from earlier work
FGF19 = target: T1, FGF19 (Homo sapiens, UniProt O95750); assay: Co-immunoprecipitation of FGF with FLAG-tagged sKL on anti-FLAG beads; assay type: binding
T1 construct: purchased R&D Systems 969FG025/CF
T1 sequence (O95750 25-216): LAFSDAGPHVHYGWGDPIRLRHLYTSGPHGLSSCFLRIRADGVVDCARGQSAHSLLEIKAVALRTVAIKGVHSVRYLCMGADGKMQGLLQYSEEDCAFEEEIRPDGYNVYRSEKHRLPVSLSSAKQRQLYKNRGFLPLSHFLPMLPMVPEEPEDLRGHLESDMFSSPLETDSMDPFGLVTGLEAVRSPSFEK
Description: (§1) To study the interaction between FLAG-tagged sKL and different FGF isoforms, co-immunoprecipitation studies were conducted. FLAG beads (A2220, Sigma-Aldrich) were used at 50 ul of 50% stock slurry per sample. Beads were washed 5× with activity buffer (50 mM Tris [pH 7.4], 200 mM NaCl, 0.01% Tween 20, Sigma-Aldrich). Bead spin-down assays were all performed for 2 minutes at 5000 g. Fifty microliters of a 50% slurry of beads per sample was resuspended in 1 ml of activity buffer in a 1.5-ml snap cap tube. One microgram of FLAG-tagged sKL or Carboxy-terminal bacterial alkaline phosphatase (BAPC; P7457, Sigma-Aldrich) was incubated with the beads for 1 hour on a bead rotator. Beads were then pelleted at 5000 g for 2 minutes and washed 5× with activity buffer. Beads were resuspended in 1 ml of activity buffer and samples with 500 ng of FGF. Beads were incubated for 1 hour on a tube rotator, and beads were pelleted and washed as before. One hundred microliters of I× Laemmli sample buffer (1610737, Bio-Rad) with 1.42 M 2-mercaptoethanol was added, and samples were boiled for 5 minutes and analyzed using sodium dodecylsulfate-polyacrylamide gel electrophoresis (SDS-PAGE) and Western blotting, as described below herein.
(§2) The sample (20 μl) was loaded onto Mini-PROTEAN TGX Precast Gel 4-20% for experiments with <9 samples (4568094, Bio-Rad) or Criterion TGX Precast Gel 4-20% (5678094, Bio-Rad) for experiments with >9 samples. Gels were run in 1× Tris/Glycine/SDS buffer (1610732, Bio-Rad) at 150 V and stopped when the sample dye reached the end of the gel. Gels were removed and electrotransferred via a semi-dry cassette (1703940, Bio-Rad) in I× Tris/Glycine buffer (1610734, Bio-Rad) with 20% methanol. Gels were transferred onto polyvinylidene diflouride membranes (IPVH00010, Millipore) at 20 V for 1 hour. Membranes were then blocked in 5% dried milk with 0.5% Tween 20 diluted in Tris-buffered saline (TBST; pH 7.5) for 1 hour and probed with antibodies against specific antigens at 1:1000 in TBST with 5% dried milk. Blots were washed 3× for 5 minutes in TBST and probed with HRP-coupled secondary antibodies against specific species at 1:10,000 in TBST with 5% dried milk. Membranes were imaged on the SRX-101A X-ray film developer (Konica Minolta).

FGF23 = target: T2, FGF23 (Homo sapiens, UniProt Q9GZV9); assay: as above; assay type: binding; details: absence of FGFR
T2 construct: purchased R&D Systems 2604FG025/CF (human) or 2629FG025/CF (mouse)
T2 sequence (Q9GZV9 25-251): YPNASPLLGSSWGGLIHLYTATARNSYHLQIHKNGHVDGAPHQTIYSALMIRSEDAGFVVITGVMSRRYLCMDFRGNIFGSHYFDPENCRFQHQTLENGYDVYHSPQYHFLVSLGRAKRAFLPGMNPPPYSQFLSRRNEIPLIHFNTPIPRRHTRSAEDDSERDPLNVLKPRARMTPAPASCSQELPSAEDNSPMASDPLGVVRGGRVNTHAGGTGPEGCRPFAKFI
Description: as §1, §2

FGF21 = target: T3, FGF21 (Homo sapiens, UniProt Q9NSA1); assay: as above; assay type: binding
T3 construct: purchased R&D Systems 2539FG025/CF
T3 sequence (Q9NSA1 29-209): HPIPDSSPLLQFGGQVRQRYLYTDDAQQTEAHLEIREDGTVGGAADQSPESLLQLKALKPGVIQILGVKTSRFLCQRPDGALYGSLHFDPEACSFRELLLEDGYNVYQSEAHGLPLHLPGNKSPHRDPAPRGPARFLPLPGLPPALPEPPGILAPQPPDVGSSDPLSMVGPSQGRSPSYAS
Description: as §1, §2

[1] = tested on: isolated adult ventricular cardiac myocytes; details: previous studies; cited from earlier work

binding activity relative to Com.sKL (FGF23 and FGFR1c; purified proteins): approximately 7 ×
FGF19 co-precipitation with immobilized FLAG-sKL (FGF19): did not bind
FGF19 co-precipitation with immobilized FLAG-sKL (FGF19; listed as FLAG-sKL): does not binds FGF19
FGF23 co-precipitation with immobilized FLAG-sKL (FGF23; listed as FLAG-sKL): bound FGF23
FGF23 co-precipitation with immobilized FLAG-sKL (FGF23; listed as FLAG-tagged sKL): FGF23 could be co-precipitated
FGF21 co-precipitation with immobilized FLAG-sKL (FGF21): did not bind
FGF21 co-precipitation with immobilized FLAG-sKL (FGF21; listed as FLAG-sKL): does not binds FGF21
B1: sKL: recombinant soluble α-klotho ectodomain, mouse aa 35-982 and human aa 34-981, FLAG- or Strep/His-tagged, purified from HEK293 cells (protein)
chain: EPGDGAQTWARFSRPPAPEAAGLFQGTFPDGFLWAVGSAAYQTEGGWQQHGKGASIWDTFTHHPLAPPGDSRNASLPLGAPSPLQPATGDVASDSYNNVFRDTEALRELGVTHYRFSISWARVLPNGSAGVPNREGLRYYRRLLERLRELGVQPVVTLYHWDLPQRLQDAYGGWANRALADHFRDYAELCFRHFGGQVKYWITIDNPYVVAWHGYATGRLAPGIRGSPRLGYLVAHNLLLAHAKVWHLYNTSFRPTQGGQVSIALSSHWINPRRMTDHSIKECQKSLDFVLGWFAKPVFIDGDYPESMKNNLSSILPDFTESEKKFIKGTADFFALCFGPTLSFQLLDPHMKFRQLESPNLRQLLSWIDLEFNHPQIFIVENGWFVSGTTKRDDAKYMYYLKKFIMETLKAIKLDGVDVIGYTAWSLMDGFEWHRGYSIRRGLFYVDFLSQDKMLLPKSSALFYQKLIEKNGFPPLPENQPLEGTFPCDFAWGVVDNYIQVDTTLSQFTDLNVYLWDVHHSKRLIKVDGVVTKKRKSYCVDFAAIQPQIALLQEMHVTHFRFSLDWALILPLGNQSQVNHTILQYYRCMASELVRVNITPVVALWQPMAPNQGLPRLLARQGAWENPYTALAFAEYARLCFQELGHHVKLWITMNEPYTRNMTYSAGHNLLKAHALAWHVYNEKFRHAQNGKISIALQADWIEPACPFSQKDKEVAERVLEFDIGWLAEPIFGSGDYPWVMRDWLNQRNNFLLPYFTEDEKKLIQGTFDFLALSHYTTILVDSEKEDPIKYNDYLEVQEMTDITWLNSPSQVAVVPWGLRKVLNWLKFKYGDLPMYIISNGIDDGLHAEDDQLRVYYMQNYINEALKAHILDGINLCGYFAYSFNDRTAPRFGLYRYAADQFEPKASMKHYRKIIDSNGFPGPETLERFCPEEFTVCTECSFFHTRKS
modifications: left off: small tags and cut ends
notes: recombinant soluble α-klotho ectodomain, mouse aa 35-982 and human aa 34-981, FLAG- or Strep/His-tagged, purified from HEK293 cells
binding in the sKL detection assay, total cell lysates (FGF23 and FGFR1c; lysates of stably transfected HEK293T cells): strong signal
development of ventricular arrhythmias (mouse model of CKD): protects
FGF23-induced calcium mishandling, altered contractility, proarrhythmic calcium release [1]: can be blocked
